Common to all, as to assay: holdup assay
Design in all cases: key: below the threshold = too weak to quantify, mostly under pKd 3.1 to 4
Holding throughout (conditions): plain residues with an end cap or a label only (N-terminal biotin on a linker: ado-ado)

The target of assay [1] is T1, APBA1_1, Q02410.
T1 sequence (Q02410 651-752, limits assumed, looked up): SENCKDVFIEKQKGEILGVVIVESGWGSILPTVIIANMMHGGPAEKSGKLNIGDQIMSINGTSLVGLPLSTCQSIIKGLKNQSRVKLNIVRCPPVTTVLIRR

The target in assay [2] is T2, ARHGEF11, O15085.
T2 sequence (O15085 42-136, limits assumed, looked up): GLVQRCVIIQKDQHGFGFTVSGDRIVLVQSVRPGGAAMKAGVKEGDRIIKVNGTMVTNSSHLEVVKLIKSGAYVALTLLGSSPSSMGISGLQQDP

In assay [3] the target is T3, DLG3_2, Q92796.
T3 sequence (Q92796 221-321, limits assumed, looked up): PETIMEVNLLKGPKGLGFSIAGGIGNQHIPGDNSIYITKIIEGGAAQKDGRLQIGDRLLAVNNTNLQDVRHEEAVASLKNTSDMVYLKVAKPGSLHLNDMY

For assay [4], the target named is T4, DVL3, Q92997.
T4 sequence (Q92997 244-331, limits assumed, looked up): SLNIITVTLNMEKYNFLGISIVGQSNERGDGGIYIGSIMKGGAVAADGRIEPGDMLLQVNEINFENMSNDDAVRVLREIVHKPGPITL

The target in assay [5] is FRMPD2_2, Q68DX3.
In assay [6] the target is FRMPD2_3, Q68DX3.
The target in assay [7] is GRASP, Q7Z6J2.
For assay [8], the target named is GRID2IP_2, A4D2P6.
Assay [9] deals with T5, GRIP1_4, Q9Y3R0.
T5 sequence (Q9Y3R0 467-571, limits assumed, looked up): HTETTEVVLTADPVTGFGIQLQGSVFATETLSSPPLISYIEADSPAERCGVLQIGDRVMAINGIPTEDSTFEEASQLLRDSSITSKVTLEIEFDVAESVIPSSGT

Assay [10] has as its target Inadl_6, Q8NI35.
Assay [11] deals with LAP2, Q96RT1.
For assay [12], the target named is T6, LIN7B, Q9HAP6.
T6 sequence (Q9HAP6 88-185, limits assumed, looked up): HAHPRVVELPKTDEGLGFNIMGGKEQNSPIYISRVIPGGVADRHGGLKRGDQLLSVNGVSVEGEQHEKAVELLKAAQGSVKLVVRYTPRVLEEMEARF

The target of assay [13] is T7, LIN7C, Q9NUP9.
T7 sequence (Q9NUP9 88-185, limits assumed, looked up): T6 sequence (Q9HAP6 88-185, limits assumed, looked up) with A2S, D13E, V35I, V40I, Q65H, S79K, R89K, A96S

Assay [14] concerns the target LNX1_2, Q8TBB1.
The target of assay [15] is MAGI1_2, Q96QZ7.
In assay [16] the target is T8, MPDZ_10, O75970.
T8 sequence (O75970 1624-1722, limits assumed, looked up): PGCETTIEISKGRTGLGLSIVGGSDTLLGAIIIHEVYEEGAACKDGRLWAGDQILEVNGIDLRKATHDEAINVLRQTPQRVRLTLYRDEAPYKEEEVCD

Assay [17] addresses T9, MPDZ_5, O75970.
T9 sequence (O75970 695-796, limits assumed, looked up): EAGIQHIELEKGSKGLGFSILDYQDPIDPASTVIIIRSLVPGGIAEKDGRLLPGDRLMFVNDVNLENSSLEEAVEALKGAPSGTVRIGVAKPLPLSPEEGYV

The target in assay [18] is T10, PDZD2_2, O15018.
T10 sequence (O15018 329-429, limits assumed, looked up): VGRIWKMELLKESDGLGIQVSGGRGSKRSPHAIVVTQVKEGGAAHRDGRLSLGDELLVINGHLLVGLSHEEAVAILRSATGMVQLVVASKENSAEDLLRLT

The target in assay [19] is PICK1, Q9NRD5.
Assay [20] concerns the target T11, SNTB1, Q13884.
T11 sequence (Q13884 107-205, limits assumed, looked up): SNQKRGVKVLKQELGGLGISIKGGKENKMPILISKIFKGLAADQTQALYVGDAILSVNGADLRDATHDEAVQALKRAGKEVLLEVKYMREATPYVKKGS

The target in assay [21] is SNX27, Q96L92.
The target of assay [22] is T12, TIAM2, Q8IVF5.
T12 sequence (Q8IVF5 885-986, limits assumed, looked up): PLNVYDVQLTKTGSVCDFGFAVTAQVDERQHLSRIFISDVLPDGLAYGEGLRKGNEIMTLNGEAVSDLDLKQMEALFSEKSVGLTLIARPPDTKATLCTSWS

In assay [23] the target is T13, TX1BP3, O14907.
T13 sequence (O14907 10-122, limits assumed, looked up): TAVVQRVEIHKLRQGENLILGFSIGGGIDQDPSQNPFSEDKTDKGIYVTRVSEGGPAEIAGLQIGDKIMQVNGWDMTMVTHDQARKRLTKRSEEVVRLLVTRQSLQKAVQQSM

Numbering of substitutions follows the chain as printed.

FRMPD2_3, Q68DX3, sequence (Q68DX3 1073-1166): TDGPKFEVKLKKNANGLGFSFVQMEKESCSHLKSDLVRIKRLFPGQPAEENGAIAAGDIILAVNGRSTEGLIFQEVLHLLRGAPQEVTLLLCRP
MAGI1_2, Q96QZ7, sequence (Q96QZ7 456-580): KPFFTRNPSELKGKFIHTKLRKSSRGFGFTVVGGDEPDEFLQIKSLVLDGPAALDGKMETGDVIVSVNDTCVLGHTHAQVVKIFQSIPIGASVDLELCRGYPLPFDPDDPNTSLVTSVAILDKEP
LNX1_2, Q8TBB1, sequence (Q8TBB1 371-470): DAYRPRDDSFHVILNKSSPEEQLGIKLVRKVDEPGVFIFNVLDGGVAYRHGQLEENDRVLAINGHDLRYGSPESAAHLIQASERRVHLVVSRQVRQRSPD
GRASP, Q7Z6J2, sequence (Q7Z6J2 96-193): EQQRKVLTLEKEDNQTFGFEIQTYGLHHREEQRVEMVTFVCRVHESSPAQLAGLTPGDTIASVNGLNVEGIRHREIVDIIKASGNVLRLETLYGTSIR
FRMPD2_2, Q68DX3, sequence (Q68DX3 944-1038): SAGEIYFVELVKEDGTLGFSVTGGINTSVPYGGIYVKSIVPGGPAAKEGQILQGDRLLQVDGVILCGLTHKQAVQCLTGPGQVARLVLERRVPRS
PICK1, Q9NRD5, sequence (Q9NRD5 17-115): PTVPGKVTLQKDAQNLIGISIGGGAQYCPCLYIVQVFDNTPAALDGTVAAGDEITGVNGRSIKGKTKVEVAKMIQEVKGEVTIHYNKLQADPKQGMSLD
Inadl_6, Q8NI35, sequence (Q8NI35 1058-1167): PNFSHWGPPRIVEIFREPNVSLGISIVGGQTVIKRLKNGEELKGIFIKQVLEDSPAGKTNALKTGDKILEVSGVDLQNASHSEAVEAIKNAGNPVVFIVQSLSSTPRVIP
LAP2, Q96RT1, sequence (Q96RT1 other isoform, or with tags, fused parts or gaps): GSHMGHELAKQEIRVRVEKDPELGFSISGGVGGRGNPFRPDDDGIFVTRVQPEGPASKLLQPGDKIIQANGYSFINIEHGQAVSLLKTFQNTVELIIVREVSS
GRID2IP_2, A4D2P6, sequence (A4D2P6 272-370): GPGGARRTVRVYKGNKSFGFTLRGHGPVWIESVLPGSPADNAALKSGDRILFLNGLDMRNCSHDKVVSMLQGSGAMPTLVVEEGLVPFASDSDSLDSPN

B1: SLC15A2, Q16348 (peptide)
chain: IKLETKKTKL
As a reminder, the pKd is −log10 of the Kd, conventionally taken in molar units. Take B1: the pKd result in assay [1] was “below the threshold”; in assay [2], 4.27; in assay [3], “below the threshold”; in assay [4] it was “below the threshold”; in [5] it was “below the threshold”; in assay [6], “below the threshold”. The pKd in assay [7] was 4.42; in assay [8], 4.71; in assay [9] it was “below the threshold”; in assay [10] it was “below the threshold”; in assay [11] it was “below the threshold”; in assay [12] it was “below the threshold”. Also, the negative logarithm of the Kd (pKd) entry was “below the threshold” in assay [13]; “below the threshold” in [14]; 3.58 in assay [15]; “below the threshold” in [16]; “below the threshold” in assay [17]; “below the threshold” in assay [18]. Also, the pKd result in assay [19] was “below the threshold”; in [20], 3.71; in assay [21] it was 3.94; in assay [22], “below the threshold”; in assay [23], 4.02.

B2: GUCY1A2, P33402 (peptide)
chain: GTMFLRETSL
In the case of B2, the pKd entry in assay [1] was “below the threshold”; in assay [2], 4.52; in assay [3] it was 4.51; in assay [4] it was “below the threshold”; in [5], “below the threshold”; in [6], “below the threshold”. Further, the pKd in assay [7] is 4.73; in assay [8], 4.62; in [9], “below the threshold”; in assay [10], 4.84; in assay [11], 3.85; in assay [12] it was 4.74. In addition, the pKd in [13] was 4.83; in assay [14], “below the threshold”; in assay [15], 4.24; in assay [16] it was 3.67; in assay [17], “below the threshold”; in [18], “below the threshold”. The pKd amounted to 4.12 in assay [19]; 5.39 in [20]; 5.72 in assay [21]; 3.66 in assay [22]; 5.31 in assay [23].

B3: SDC3, O75056 (peptide)
chain: KPDKQEEFYA
Take B3: the pKd result in assay [1] is “below the threshold”; in assay [2], “below the threshold”; in assay [3], 4.05; in assay [4], “below the threshold”; in assay [5] it was “below the threshold”; in assay [6] it was “below the threshold”. Moreover, the pKd entry in assay [7] is “below the threshold”; in assay [8] it was “below the threshold”; in [9], “below the threshold”; in [10] it was “below the threshold”; in [11], “below the threshold”; in [12] it was 3.78. Moreover, the negative-log Kd (pKd) result in [13], in assay [14], in assay [15], in assay [16], in assay [17] and in assay [18] was “below the threshold” throughout. Further, the pKd result is “below the threshold” in assay [19]; “below the threshold” in assay [20]; “below the threshold” in [21]; 4.04 in [22]; “below the threshold” in [23].

B4: SEMA4F, O95754 (peptide)
chain: PLATCDETSI
With B4, the pKd entry is “below the threshold” in assay [1]; “below the threshold” in [2]; 4.3 in assay [3]; “below the threshold” in assay [4]; 3.53 in assay [5]; “below the threshold” in assay [6]. Further, the pKd result was “below the threshold” in [7]; “below the threshold” in assay [8]; “below the threshold” in assay [9]; “below the threshold” in assay [10]; “below the threshold” in assay [11]; 3.78 in assay [12]. Also, the pKd entry is “below the threshold” in [13]; “below the threshold” in assay [14]; “below the threshold” in assay [15]; “below the threshold” in assay [16]; “below the threshold” in assay [17]; 4.47 in assay [18]. In addition, the pKd result in assay [19] was “below the threshold”; in [20], 4.51; in assay [21], 5.26; in assay [22] it was 4.08; in assay [23] it was “below the threshold”.

B5: TBPL1, P62380 (peptide)
chain: FVFESRKEIL
On to B5, for which the pKd result in [1], in assay [2], in assay [3], in [4], in [5] and in assay [6] was “below the threshold” throughout. Also, the pKd in assay [7] is 4.72; in [8], “below the threshold”; in assay [9], “below the threshold”; in assay [10], “below the threshold”; in assay [11], “below the threshold”; in assay [12] it was “below the threshold”. The pKd in assay [13] is 3.95; in [14], “below the threshold”; in assay [15] it was “below the threshold”; in assay [16] it was “below the threshold”; in [17], “below the threshold”; in [18], “below the threshold”. Besides, the pKd result in assay [19], in assay [20], in assay [21], in assay [22] and in [23] was “below the threshold” in each case.

For the origin of these results see article PMC9482650, “Quantitative fragmentomics allow affinity mapping of interactomes” (Nature Communications, 2022).
